In patent US7329737 (DYAX, dated 2008) one finds Kd, koff and kon data, which are given here for 14 molecules.

B1: M0096-E11 (Fab, V domains shown)
VH: EVQLLESGGGLVQPGGSLRLSCAASGFTFSHYLMYWVRQAPGKGLEWVSSIYPSGGFTAYADSVKGRFTISRDNSKNTLYLQMNSLRAEDTAVYYCARRGVYGTFDIWGQGTMVTVSS
VL: DIQMTQSPLSLSASVGDRVTMTCRASQTISSYLNWYQQKPGKAPKLLIYTTSSLQSGVPSRFSGSGSGTEFTLTISSLQPEDFATYYCQQSHSSPTFGGGTKVEIKR
B2: M0107-D01 (Fab, V domains shown)
VH: EVQLLESGGGLVQPGGSLRLSCAASGFTFSWYGMGWVRQAPGKGLEWVSVIRPSGGTTRYADSVKGRFTISRDNSKNTLYLQMNSLRAEDTAVYYCARGGRYYSLDYWGQGTLVTVSS
VL: AQSELTQPASVSGPPGQSITISCTGTSSDVGGYNYVSWYQQHPGKAPKLIIYEVSNRPSGVSYRFSASKSDNTASLTISGVQAEDEADYYCSSYKRGGTYVFGTGTTVIVL
B3: M0093-G06 (Fab, V domains shown)
VH: EVQLLESGGGLVQPGGSLRLSCAASGFTFSNYHMDWVRQAPGKGLEWVSVIGPSGGFTRYADSVKGRFTISRDNSKNTLYLQMNSLRAEDTAVYYCARALGGSLDYWGQGTLVTVSS
VL: AQSALTQPRSVSGSLGQSVTISCTGSTSDVGGYTYVSWYQQEPGKAPKLMIHDVSKRPSGVPDRFSGSKSGNTASLIISGLQAEDEADYYCCSYAGSYSYVFGTGTKVTVLG
B4: M0099-A09 (Fab, V domains shown)
VH: EVQLLESGGGLVQPGGSLRLSCAASGFTFSRYAMFWVRQAPGKGLEWVSSISPSGGKTRYADSVKGRFTISRDNSKNTLYLQMNSLRAEDTAVYYCARGGGTALDYWGQGTLVTVSS
VL: DIQMTQSPGTLSLSPGERATLSCRASQSVYSSYLAWYQQKPGQAPRLLIYAASNRAIGIPDRFSGSGSGTDFTLTISSMQPEDFATYYCQQSYSTPRFGQGTKLEIKR
B5: M0105-B06 (Fab, V domains shown)
VH: EVQLLESGGGLVQPGGSLRLSCAASGFTFSHYAMGWVRQAPGKGLEWVSRIWPSGGHTQYADSVKGRFTISRDNSKNTLYLQMNSLRAEDTAMYYCATGYSSTWGAFDIWGQGTMVTVSS
VL: DIQMTQSPSSLSASVGDRVTLTCRASQSIANYLNWYQQKPGKAPKLLVYAASRLHSGVPSRFSGRGSGTDFTLTITSLEPDDLATYYCQQSHASPLTFGGGTKVEIKR
B6: M0138-E12 (Fab, V domains shown)
VH: EVQLLESGGGLVQPGGSLRLSCAASGFTFSWYVMRWVRQAPGKGLEWVSSIYPSGGQTRYADSVKGRFTISRDNSKNTLYLQMNSLRAEDTAMYYCATGYSSTWGAFDIWGQGTMVTVSS
VL: AQSALTQPASVSGSPGQSITISCSGTSSDVGAYYHVSWYQQHPGKAPKLMIYEVTNRPSGISNRFSGSKSGNTASLTISGLQADDEADYFCSSYTTSNTLVFGGGTKVTVLG
B7: M0104-B03 (Fab, V domains shown)
VH: EVQLLESGGGLVQPGGSLRLSCAASGFTFSNYTMFWVRQAPGKGLEWVSSIYPSGGITRYADSVKGRFTISRDNSKNTLYLQMNSLRAEDTAVYYCARVSFWNAFDIWGQGTMVTVSS
VL: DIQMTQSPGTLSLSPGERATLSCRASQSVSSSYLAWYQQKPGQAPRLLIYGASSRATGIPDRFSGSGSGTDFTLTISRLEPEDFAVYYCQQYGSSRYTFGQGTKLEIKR
B8: M0101-E01 (Fab, V domains shown)
VH: EVQLLESGGGLVQPGGSLRLSCAASGFTFSPYIMSWVRQAPGKGLEWVSSIVSSGGVTLYADSVKGRFTISRDNSKNTLYLQMNSLRAEDTAVYYCTKNINLRYDILTGYFDIWGQGTTVTVSS
VL: DIQMTQSPSSVSASVGDRVTITCRAGQNIYYWLAWYQQKPGKAPQLLIYAASSLQSGVPSRFSGSGSGTDFTLTISSLQPEDFATYYCQQAKSFPVTFGGGTKVEIKR
B9: M0097-D04 (Fab, V domains shown)
VH: EVQLLESGGGLVQPGGSLRLSCAASGFTFSHYFMHWVRQAPGKGLEWVSYISSSGGLTGYADSVKGRFTISRDNSKNTLYLQMNSLRAEDTAVYYCARRGPVYYYDSSGSHSAFDIWGQGTMVTVS
VL: AQSELTQPPSASGTPGQRVTISCSGSSSNIGSNYVYWYQQLPGMAPKLLIYRNNQRPSGVPDRFSGSKSGTSASLAISGLRSEDEADYYCAAWDDSMSGVVFGGGTKLTVLS
B10: M0103-A03 (Fab, V domains shown)
VH: EVQLLESGGGLVQPGGSLRLSCAASGFTFSHYPMSWVRQAPGKGLEWVSYIRSGGYTTYADSVKGRFTISRDNSKNTLYLQMNSLRAEDTAVYYCARERVFCSGGRCGSYFDYWGQGTLVTVSS
VL: DIQMTQSPSSVSASVGDRVTITCRASQDVRRFLAWYQQKPGKAPKLLIYAASSLQSGVPSRFSGSGSGTDFTLTISSLQPEDFATYYCQQANSFPITFGQGTRLEIKR
B11: M0107-F11 (Fab, V domains shown)
VH: EVQLLESGGGLVQPGGSLRLSCAASGFTFSHYQMHWVRQAPGKGLEWVSSIRPSGGRTAYADSVKGRFTISRDNSKNTLYLQMNSLRAEDTAVYYCARVGVWYGMDVWGQGTTVTVSS
VL: DIQMTQSPGTLSLSPGERATLSCRASQSVSGSYLAWYQQKPGQAPSLLIYGAYSRATGIPDRFSGSGSGTDFTLTISRLEPEDFAVYYCQHYGSSPRTFGGGTKVEIKR
B12: M0109-E08 (Fab, V domains shown)
VH: EVQLLESGGGLVQPGGSLRLSCAASGFTFSHYTMLWVRQAPGKGLEWVSSIYSSGGSTYYADSVKGRFTISRDNSKNTLYLQMNSLRAEDTAVYYCARVGVWYGMDVWGQGTTVTVSS
VL: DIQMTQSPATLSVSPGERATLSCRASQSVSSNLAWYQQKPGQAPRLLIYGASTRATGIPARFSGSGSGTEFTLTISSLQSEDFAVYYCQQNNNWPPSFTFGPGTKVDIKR
B13: M0108-E11 (Fab, V domains shown)
VH: EVQLLESGGGLVQPGGSLRLSCAASGFTFSNYSMMWVRQAPGKGLEWVSSIYPSGGFTKYADSVKGRFTISRDNSKNTLYLQMNSLRAEDTAVYYCARVGFYGGFVWGQGTTVTVSS
VL: AQYELTQPASVSGSPGQSITISCTATSSDLGSYNFVSWYQQHPDKAPKLMIFEVSRRPSGVSNRFSGSKSGNTASLTISGLQAEDEADYYCCSYAGSNTYVFGTGTKVTVLG
B14: M0127-C06 (Fab, V domains shown)
VH: EVQLLESGGGLVQPGGSLRLSCAASGFTFSNYPMHWVRQAPGKGLEWVSYIGPSGGWTRYADSVKGRFTISRDNSKNTLYLQMNSLRAEDTAVYYCARAPSGYWGQGTLVTVSS
VL: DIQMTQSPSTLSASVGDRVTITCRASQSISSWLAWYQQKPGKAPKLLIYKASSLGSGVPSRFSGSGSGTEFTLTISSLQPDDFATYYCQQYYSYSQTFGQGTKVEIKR

The target of the assay is T1, hK1 (human tissue kallikrein 1), recombinant (human, UniProt P06870 25-262).
T1 construct: Expressed in P. pastoris from KLK1 cDNA and purified; enzymatically active; also called KLK1; Recombinant (Pichia) Kallikrein
Put plainly: SPR. Background: SPR reads the build-up and loss of mass on a sensor chip optically.
In general, Kd refers to the constant that tells how readily two partners part at equilibrium. In general, koff refers to the rate constant with which the complex falls apart. By kon is commonly meant the rate constant with which the complex forms. For the molecule B1, the dissociation constant Kd stood at 10.1 nM, the koff stood at 0.00836 s⁻¹ and the kon was determined as 827000 M⁻¹ s⁻¹.
The matching figures for B2: 9.06 nM, 0.00812 s⁻¹ and 896000 M⁻¹ s⁻¹.
The matching figures for B3: 8.4 nM, 0.00313 s⁻¹ and 372000 M⁻¹ s⁻¹.
In the case of B4, the Kd was found to be 10.7 nM, the koff stood at 0.00285 s⁻¹ and the on-rate constant (kon) stood at 267000 M⁻¹ s⁻¹.
Turning to B5, the Kd was found to be 8.81 nM, the off-rate constant (koff) stood at 0.0036 s⁻¹ and the on-rate (kon) is 409000 M⁻¹ s⁻¹.
The matching figures for B6: 10 nM, 0.00149 s⁻¹ and 148000 M⁻¹ s⁻¹.
As to B7, the Kd came to 10.1 nM, the koff came out at 0.00711 s⁻¹ and the kon was 707000 M⁻¹ s⁻¹.
B8: the Kd was 9.74 nM, the off-rate constant (koff) is 0.000941 s⁻¹ and the kon was 96600 M⁻¹ s⁻¹.
The matching figures for B9: 8.28 nM, 0.00168 s⁻¹ and 203000 M⁻¹ s⁻¹.
Turning to B10, the Kd is 10.6 nM, the koff worked out at 0.00988 s⁻¹ and the on-rate (kon) was determined as 931000 M⁻¹ s⁻¹.
The matching figures for B11: 9.71 nM, 0.0066 s⁻¹ and 680000 M⁻¹ s⁻¹.
Regarding B12, the dissociation constant (Kd) came out at 10.1 nM, the koff is 0.00889 s⁻¹ and the kon came out at 880000 M⁻¹ s⁻¹.
For the molecule B13, the Kd worked out at 8.5 nM, the koff was determined as 0.00355 s⁻¹ and the on-rate (kon) was 418000 M⁻¹ s⁻¹.
Turning to B14, the Kd was determined as 8.69 nM, the off-rate constant (koff) came out at 0.00575 s⁻¹ and the kon is 662000 M⁻¹ s⁻¹.
